Data: paper PMC5703498, “Plant-type phytoene desaturase: Functional evaluation of structural implications” (PLoS ONE, 2017)
Positions count from the first letter of the chain named.

B1: Oryza sativa phytoene desaturase with C-terminal His6 (OsPDS-His6), wild type (enzyme, UniProt A2XDA1 88-578, looked up)
chain: AGQLSSFFRNSEQPTKPLQVVIAGAGLAGLSTAKYLADAGHKPILLEARDVLGGKIAAWKDEDGDWYETGLHIFFGAYPNIQNLFGELGINDRLQWKEHSMIFAMPNKPGEFSRFDFPETLPAPLNGIWAILRNNEMLTWPEKVKFALGLLPAMVGGQAYVEAQDGFTVSEWMKKQGVPDRVNDEVFIAMSKALNFINPDELSMQCILIALNRFLQEKHGSKMAFLDGNPPERLCMPIVDHVRSLGGEVRLNSRIQKIELNPDGTVKHFALTDGTQITGDAYVFATPVDILKLLVPQEWKEISYFKKLEKLVGVPVINVHIWFDRKLKNTYDHLLFSRSSLLSVYADMSVTCKEYYDPNRSMLELVFAPAEEWVGRSDTEIIEATMQELAKLFPDEIAADQSKAKILKYHVVKTPRSVYKTIPDCEPCRPLQRSPIEGFYLAGDYTKQKYLASMEGAVLSGKLCAQSVVEDYKMLSRRSLKSLQSEVPVAS
notes: residue numbers count on the immature protein A2XDA1.2 including the transit peptide; the GPC done here is described only as 'homooligomer'; Cloned through an NdeI site, so a start methionine probably precedes residue 88 (surmised); also called rice PDS-His6; wild type PDS; not shown: His6, C-terminal, kept
B2: Oryza sativa phytoene desaturase Arg300Ser mutant (Arg300Ser PDS) (enzyme, UniProt A2XDA1 88-578, looked up)
chain: B1 chain with R213S
notes: residue numbers count on the immature protein A2XDA1.2 including the transit peptide; Same construct as m1 apart from the mutation; about 70% in the FAD holo form, like the wild type; also called mutant enzyme Arg300Ser; source: E. coli, purified

Target: the molecule itself
Assay: SEC; gel permeation chromatography (GPC) of the purified protein on a Superose 6 10/300 GL column, elution monitored at 280 nm, carried out as in ref. 6

Protein	binding result
B1	binds
B2	binds
